To fix the notation:
B1: mRNA-splicing (parent)
chain: AGUUGCUGCUGGGAGCUCCAGCACAGUGAAAUGGACAGAAGGGCAGAGCAA

Variants of B1 are the subject of this data set. Put plainly: exon inclusion enrichment index; higher = more inclusion; WT1 exon 5 minigene, HEK293.
For the variant AGUUCACACAGGGAGCUCCAGGCCAGUGAAAUGGACAGAAGGGCAGAGCAA [G5C C6A U7C G8A U10A C22G A23C], the “exon inclusion enrichment index” value came out at 0.0525.

For AGUUCUUCUCGGGAGCUCCAGCACAGUGAACCGGACAGAAGGGCAGAGCAA [G5C C6U G8C C9U U10C A31C U32C], the “exon inclusion enrichment index” value was 3.49. With AGUUCACACAGGGAGCUCCAGCACAGUAGAAUGGACAGAAGGGCAGAGCAA [G5C C6A U7C G8A U10A G28A A29G] the figure was 0.0244.

On to AGUUACCACCGGGAGCUCCAGCACAGUGAAUGGGACAGAAGGGCAGAGCAA [G5A U7C G8A U10C A31U U32G], for which the “exon inclusion enrichment index” value was determined as 1.32. With AGUUAGGGAUGGGAGCUCCAGCACAGUGAAAUGGACAGAAGUUCAGAGCAA [G5A C6G U7G C9A G42U G43U] the figure was 0.00686. For AGUUGACGACGGGAGCUCCAGCACAGUGAAAUGGACAGAAGGGCCGAGCAA [C6A U7C C9A U10C A45C] the value was 3.19. With AGUUGUAGACGGGAGCUCCAGCACAGUGAAAUGGACAGAAGGGCAGAGCAA [C6U U7A C9A U10C] the figure was 0.322; with AGUUACCACCGGUCGCUCCAGCACAGUGAAAUGGACAGAAGGGCAGAGCAA [G5A U7C G8A U10C G13U A14C], 1.41. Take AGUUAUAUAUGGGAGCUCCAGCACAGUGAUCUGGACAGAAGGGCAGAGCAA [G5A C6U U7A G8U C9A A30U A31C]: the “exon inclusion enrichment index” value was 0.064. With AGUUCACACAGGGAGCUCCAGCACAGUGAAAUGGACAGAAGGGCAUCGCAA [G5C C6A U7C G8A U10A G46U A47C] the figure was 0.501; with AGUUCAUUCAGGGAGCUCCAGCACAGUGAAAUGGACAGAAGGGCAGAGCAA [G5C C6A G8U U10A], 0.0451. With AGUUGACGACGGGAGCUCCAGCACAGUGAAAUGGAUAGAAGGGCAGAGCAA [C6A U7C C9A U10C C36U] the figure was 1.34; with AGGUCUUCUCGGGAGCUCCAGCACAGUGAAAUGGACAGAAGGGCAGAGCAA [U3G G5C C6U G8C C9U U10C], 0.696. With AGUUGAAGAAGGGAGCUCCAUGACAGUGAAAUGGACAGAAGGGCAGAGCAA [C6A U7A C9A U10A G21U C22G] the figure was 0.565. With AGUUUCUUUUGGGAGCUCCAGCACAGUGAAAUGGACAGAAGGGUAGAGCAA [G5U G8U C9U C44U], the “exon inclusion enrichment index” value turned out to be 0.0292. AGUUGAAGAAGGGAGCUCCAGCACAGUGAAAUGGACAGAAAAGCAGAGCAA [C6A U7A C9A U10A G41A G42A]: the “exon inclusion enrichment index” value is 0.559.

Consider AGUUGACGACGGGAGCUCGCGCACAGUGAAAUGGACAGAAGGGCAGAGCAA [C6A U7C C9A U10C C19G A20C], for which the “exon inclusion enrichment index” value came out at 3.87.

As to AGUUUCCGCCGGGAGCUCCAGCACAGUGAAAUGGACAGAAGGGCAGAGCAA [G5U U7C U10C], the “exon inclusion enrichment index” value came to 3.02.

As for AGUUCUUCUCGGGAGGACCAGCACAGUGAAAUGGACAGAAGGGCAGAGCAA [G5C C6U G8C C9U U10C C16G U17A], the “exon inclusion enrichment index” value was 2.4.

For AGUUGAAGAAGGAAGCUCCAGCACAGUGAAAUGGACAGAAGGGCAGAGCAA [C6A U7A C9A U10A G13A], the “exon inclusion enrichment index” value worked out at 1.97. On to AGUUAUAUAUGGGAGCUCGUGCACAGUGAAAUGGACAGAAGGGCAGAGCAA [G5A C6U U7A G8U C9A C19G A20U], for which the “exon inclusion enrichment index” value was found to be 0.0389. For AGUUACCACCGGGAGCUAUAGCACAGUGAAAUGGACAGAAGGGCAGAGCAA [G5A U7C G8A U10C C18A C19U] the value was 0.0739; for AGUUCGCUCCGGGAGCUCCAGCACAGUGAAAUGGACAGAAGGGCAGAGCAA [G5C C6G U7C G8U U10C], 2.76; for AGUUCUUCCUGGGAGCUCCAGCACAGUGAAAUGGACAGAAGGGCAGAGCAA [G5C C6U G8C], 1.8. For AGUUAGGGAGCGGAGCUCCAGCACAGUGAAAUGGACAGAAGGGCAGAGCAA [G5A C6G U7G C9A U10G G11C] the value was 0.00673; for AGUUAGGGAUGGGAGCUCCAGCACAGUGAAAUGGACAGAAGGGCUCAGCAA [G5A C6G U7G C9A A45U G46C], 0.00134. For AGUUGCUGCUGGGAGCUCCAGAGCAGUGAAAUGGACAGAAGGGCAGAGCAA [C22A A23G] the value was 1.76; for AGUUAGUACCGGGAGCUCCAGCACAGUGAAAUGGACAGAAGGGCAGAGCAA [G5A C6G G8A U10C], 0.184. Take AGUUAGGGAUGGGAGCUCCAGCACAGUGAAAUGGACAGAAGGGCAUGGCAA [G5A C6G U7G C9A G46U A47G]: the “exon inclusion enrichment index” value came out at 0.00156. With AGUUCGCGCCGGGAGCUCCAGCACAGUGAAAUGGACAGAAGGUCAGAGCAA [G5C C6G U7C U10C G43U] the figure was 2.89; with AGUUCACACAGGGAGCUCCAGCACAGUGAUUUGGACAGAAGGGCAGAGCAA [G5C C6A U7C G8A U10A A30U A31U], 0.0758. With AGUUGGCGACGGGAGCUCCAGCACAGUGAAAUGGACAGAAGGGCAGAGCAA [C6G U7C C9A U10C] the figure was 3.21; with AGUUCGGUCCGGGAGCUCCAGCACAGUGAAAUGGACAGAAGGGCAGAGCAA [G5C C6G U7G G8U U10C], 1.74. With AGUUGAAGAAGGGAGCUCCAGCACAGUUGAAUGGACAGAAGGGCAGAGCAA [C6A U7A C9A U10A G28U A29G] the figure was 0.627; with AGUUAGGGAUGGGAGCUCCAGCACAGUGAAAUGGACAGAAGGGUCGAGCAA [G5A C6G U7G C9A C44U A45C], 0.00286. Regarding AGUUAGGGAUGGGAGCUCCAGCACAGUGAAAUGGACAGUAGGGCAGAGCAA [G5A C6G U7G C9A A39U], the “exon inclusion enrichment index” value worked out at 0.000789.

AGUUCACACAGGGAGCUCCAGCACAGUGAAAUUCACAGAAGGGCAGAGCAA [G5C C6A U7C G8A U10A G33U G34C]: the “exon inclusion enrichment index” value came to 0.00585. With AGUUACCACCGGGAGCUCCAGCACAGUGAAAUUAACAGAAGGGCAGAGCAA [G5A U7C G8A U10C G33U G34A] the figure was 0.441. With AGUUAUUCAUGGGAGCUCCAGCACAGUGAAAUGGACAGAAGGGCAGAGCAA [G5A C6U G8C C9A] the figure was 0.357. With AGUUUCUUUUGGGAGCUCGGGCACAGUGAAAUGGACAGAAGGGCAGAGCAA [G5U G8U C9U C19G A20G] the figure was 0.0362; with AGUUGACGACGGAAGCUCCAGCACAGUGAAAUGGACAGAAGGGCAGAGCAA [C6A U7C C9A U10C G13A], 3.32. Regarding AGUUUCUUUUGGGAGCUCCAGCACAGUGACUUGGACAGAAGGGCAGAGCAA [G5U G8U C9U A30C A31U], the “exon inclusion enrichment index” value worked out at 0.139.

Consider AGUUAUAUAUGGGAGCUCCAGAGCAGUGAAAUGGACAGAAGGGCAGAGCAA [G5A C6U U7A G8U C9A C22A A23G], for which the “exon inclusion enrichment index” value stood at 0.0409. With AGUUGAAGAAGGGAGCUCCAGCACAGUGCCAUGGACAGAAGGGCAGAGCAA [C6A U7A C9A U10A A29C A30C] the figure was 1.17; with AGUUUCUUUUGGGAUAUCCAGCACAGUGAAAUGGACAGAAGGGCAGAGCAA [G5U G8U C9U G15U C16A], 0.0344. For AGUUGACGACGGGAGCUCCAGCACAGAUAAAUGGACAGAAGGGCAGAGCAA [C6A U7C C9A U10C U27A G28U] the value was 2.04. With AGUUAUAUAUGGGAGCUCCAGCACAGUGAAAUGGACAGAAGGGCAUCGCAA [G5A C6U U7A G8U C9A G46U A47C] the figure was 0.376; with AGUUACCACCGGGAGCUGUAGCACAGUGAAAUGGACAGAAGGGCAGAGCAA [G5A U7C G8A U10C C18G C19U], 0.528; with AUGUAGGGAUGGGAGCUCCAGCACAGUGAAAUGGACAGAAGGGCAGAGCAA [G2U U3G G5A C6G U7G C9A], 0.0222. Consider AGUUACCACCGGGAGCUCCAGUACAGUGAAAUGGACAGAAGGGCAGAGCAA [G5A U7C G8A U10C C22U], for which the “exon inclusion enrichment index” value stood at 2.11.

For the variant AGUUACCACCGGGAGCUCCAGAACAGUGAAAUGGACAGAAGGGCAGAGCAA [G5A U7C G8A U10C C22A], the “exon inclusion enrichment index” value was found to be 2.32.
